Measured values taken from the supplement of paper PMC9112550, “Optimization of the antimicrobial peptide Bac7 by deep mutational scanning” (BMC Biology, 2022).

System: Escherichia coli TOP10
Assay: shrunken log2 fold change of peptide-encoding DNA abundance (4.5 h post-induction vs induction); higher = less antimicrobial activity (less host growth inhibition)
Conditions: time post-induction: 4.5 h; library: site-saturation at positions 5, 18, 19, 20
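Further: peptides expressed intracellularly from a pBAD plasmid library in pooled LB shake-flask culture, induced with 0.3% L-arabinose, DNA abundance read by NGS, three biological replicates, DESeq2 with apeglm shrinkage.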

Point of comparison: RRIRVRPPRLPRPRPRPYGCPRP, “shrunken log2 fold change” value -0.00989. Against it:
- RRIRSRPPRLPRPRPRPEYEPRP — within 0.2 log units, -0.0387
- RRIRARPPRLPRPRPRPVVCPRP — higher, 0.224
- RRIRNRPPRLPRPRPRPMTSPRP — within 0.2 log units, -0.0113
- RRIRNRPPRLPRPRPRPCPSPRP — within 0.2 log units, -0.0371
- RRIRERPPRLPRPRPRPTCRPRP — within 0.2 log units, -0.146
- RRIRNRPPRLPRPRPRPPMSPRP — within 0.2 log units, -0.0527
- RRIRPRPPRLPRPRPRPFQAPRP — lower, -0.216
- RRIRCRPPRLPRPRPRPHFRPRP — lower, -0.308
- RRIRLRPPRLPRPRPRPENIPRP — lower, -0.519
- RRIRERPPRLPRPRPRPPSDPRP — within 0.2 log units, 0.0848
- RRIRARPPRLPRPRPRPIMAPRP — within 0.2 log units, 0.0923
- RRIRRRPPRLPRPRPRPFAFPRP — within 0.2 log units, 0.0757
- RRIRIRPPRLPRPRPRPFRDPRP — within 0.2 log units, -0.111
- RRIRYRPPRLPRPRPRPLLEPRP — within 0.2 log units, -0.17
- RRIRRRPPRLPRPRPRPGTPPRP — higher, 0.435
- RRIRPRPPRLPRPRPRPMTRPRP — within 0.2 log units, 0.0702
- RRIRPRPPRLPRPRPRPWPQPRP — within 0.2 log units, 0.0953
- RRIRFRPPRLPRPRPRPHLCPRP — within 0.2 log units, -0.0692
- RRIRNRPPRLPRPRPRPPRMPRP — higher, 0.24
- RRIRYRPPRLPRPRPRPPKLPRP — within 0.2 log units, -0.172
- RRIRDRPPRLPRPRPRPQENPRP — within 0.2 log units, 0.0153
- RRIRRRPPRLPRPRPRPISHPRP — lower, -0.215
- RRIRDRPPRLPRPRPRPDLSPRP — within 0.2 log units, 0.0253
- RRIRSRPPRLPRPRPRPRTCPRP — within 0.2 log units, 0.0915
- RRIRIRPPRLPRPRPRPTEFPRP — lower, -0.408
- RRIRMRPPRLPRPRPRPNEQPRP — higher, 0.37
- RRIRARPPRLPRPRPRPYNDPRP — lower, -1.28
- RRIRIRPPRLPRPRPRPIIHPRP — lower, -0.667
- RRIRCRPPRLPRPRPRPSHPPRP — within 0.2 log units, -0.0807
- RRIRGRPPRLPRPRPRPVLSPRP — higher, 0.238
- RRIRERPPRLPRPRPRPTQSPRP — higher, 0.329
- RRIRARPPRLPRPRPRPYGTPRP — within 0.2 log units, -0.131
- RRIRQRPPRLPRPRPRPRVYPRP — within 0.2 log units, 0.0498
- RRIRNRPPRLPRPRPRPTYRPRP — within 0.2 log units, -0.0805
- RRIRMRPPRLPRPRPRPFWQPRP — higher, 0.341
- RRIRVRPPRLPRPRPRPNVPPRP — lower, -0.345
- RRIRFRPPRLPRPRPRPRARPRP — higher, 0.661
- RRIRSRPPRLPRPRPRPPPVPRP — higher, 0.745
- RRIRIRPPRLPRPRPRPKANPRP — within 0.2 log units, -0.103
- RRIRSRPPRLPRPRPRPQANPRP — within 0.2 log units, -0.0559
- RRIRGRPPRLPRPRPRPMERPRP — higher, 1.36
- RRIRMRPPRLPRPRPRPKVMPRP — higher, 0.201
- RRIRARPPRLPRPRPRPPNEPRP — higher, 0.716
- RRIRERPPRLPRPRPRPEFGPRP — within 0.2 log units, -0.171
- RRIRWRPPRLPRPRPRPIFFPRP — within 0.2 log units, 0.125
- RRIRFRPPRLPRPRPRPMGCPRP — within 0.2 log units, 0.125
- RRIRIRPPRLPRPRPRPYIVPRP — within 0.2 log units, -0.0153
- RRIRLRPPRLPRPRPRPQLWPRP — within 0.2 log units, -0.195
- RRIRWRPPRLPRPRPRPASCPRP — higher, 0.241
- RRIRMRPPRLPRPRPRPVAGPRP — higher, 1.31
- RRIRERPPRLPRPRPRPLEDPRP — within 0.2 log units, -0.157
- RRIRARPPRLPRPRPRPPIFPRP — higher, 0.25
- RRIRKRPPRLPRPRPRPDNDPRP — within 0.2 log units, -0.00188
- RRIRHRPPRLPRPRPRPARIPRP — within 0.2 log units, 0.0499
- RRIRMRPPRLPRPRPRPDQAPRP — higher, 0.357
- RRIRTRPPRLPRPRPRPMDYPRP — within 0.2 log units, -0.00965
- RRIRGRPPRLPRPRPRPVAVPRP — higher, 0.912
- RRIRIRPPRLPRPRPRPPSNPRP — lower, -0.613
- RRIRLRPPRLPRPRPRPAGEPRP — within 0.2 log units, -0.0968
- RRIRRRPPRLPRPRPRPTTPPRP — higher, 0.463
- RRIRRRPPRLPRPRPRPLSPPRP — higher, 0.411
- RRIRRRPPRLPRPRPRPCTLPRP — lower, -0.49
- RRIRSRPPRLPRPRPRPAAWPRP — higher, 0.226
- RRIRFRPPRLPRPRPRPKNSPRP — lower, -0.533
- RRIRPRPPRLPRPRPRPDTEPRP — lower, -0.48
- RRIRNRPPRLPRPRPRPHIPPRP — lower, -0.793
- RRIRWRPPRLPRPRPRPNRWPRP — higher, 0.218
- RRIRSRPPRLPRPRPRPVLMPRP — within 0.2 log units, -0.0465
- RRIRPRPPRLPRPRPRPYYKPRP — lower, -0.215
- RRIRCRPPRLPRPRPRPAPCPRP — within 0.2 log units, 0.122
- RRIRARPPRLPRPRPRPCHSPRP — within 0.2 log units, 0.0213
- RRIRKRPPRLPRPRPRPQWVPRP — within 0.2 log units, 0.0548
- RRIRMRPPRLPRPRPRPSVCPRP — higher, 0.386
- RRIRKRPPRLPRPRPRPFYHPRP — within 0.2 log units, 0.0754
- RRIRHRPPRLPRPRPRPNWYPRP — lower, -0.928
- RRIRSRPPRLPRPRPRPWRGPRP — higher, 0.59
- RRIRKRPPRLPRPRPRPNMVPRP — within 0.2 log units, 0.114
- RRIRTRPPRLPRPRPRPSYHPRP — lower, -0.833
- RRIRYRPPRLPRPRPRPFAQPRP — within 0.2 log units, -0.159
- RRIRCRPPRLPRPRPRPALTPRP — higher, 0.224
- RRIRARPPRLPRPRPRPRYAPRP — higher, 0.495
- RRIRVRPPRLPRPRPRPDTRPRP — within 0.2 log units, -0.129
- RRIRCRPPRLPRPRPRPIRKPRP — within 0.2 log units, -0.126
- RRIRSRPPRLPRPRPRPHKYPRP — lower, -0.377
- RRIRCRPPRLPRPRPRPKAPPRP — higher, 0.337
- RRIRKRPPRLPRPRPRPNQVPRP — within 0.2 log units, -0.0821
- RRIRLRPPRLPRPRPRPYRVPRP — within 0.2 log units, -0.00141
- RRIRCRPPRLPRPRPRPNHHPRP — lower, -0.604
- RRIRFRPPRLPRPRPRPDPFPRP — lower, -0.341
- RRIRGRPPRLPRPRPRPHACPRP — within 0.2 log units, -0.0193
